Test results from patent publication US20210246217A1 (LEADARTIS S L, published 2021).

T1: recombinant mouse TNFSF9 (4-1BBL) (mouse, UniProt P41274 104-309, limits assumed)
T1 construct: It was detected through a tag in FACS and carried the CF488A label in RICS; also called m4-1BBL; recombinant soluble mouse 4-1BBL
T1 sequence (looked up): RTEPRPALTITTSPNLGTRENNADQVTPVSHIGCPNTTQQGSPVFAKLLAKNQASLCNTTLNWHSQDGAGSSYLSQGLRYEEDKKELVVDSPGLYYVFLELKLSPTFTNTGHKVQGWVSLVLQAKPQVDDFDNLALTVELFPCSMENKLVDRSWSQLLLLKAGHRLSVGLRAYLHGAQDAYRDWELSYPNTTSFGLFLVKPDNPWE

T2: human CEA (hCEA) (human, UniProt P06731 35-685, limits assumed)
T2 construct: also called carcinoembryonic antigen
T2 sequence (looked up): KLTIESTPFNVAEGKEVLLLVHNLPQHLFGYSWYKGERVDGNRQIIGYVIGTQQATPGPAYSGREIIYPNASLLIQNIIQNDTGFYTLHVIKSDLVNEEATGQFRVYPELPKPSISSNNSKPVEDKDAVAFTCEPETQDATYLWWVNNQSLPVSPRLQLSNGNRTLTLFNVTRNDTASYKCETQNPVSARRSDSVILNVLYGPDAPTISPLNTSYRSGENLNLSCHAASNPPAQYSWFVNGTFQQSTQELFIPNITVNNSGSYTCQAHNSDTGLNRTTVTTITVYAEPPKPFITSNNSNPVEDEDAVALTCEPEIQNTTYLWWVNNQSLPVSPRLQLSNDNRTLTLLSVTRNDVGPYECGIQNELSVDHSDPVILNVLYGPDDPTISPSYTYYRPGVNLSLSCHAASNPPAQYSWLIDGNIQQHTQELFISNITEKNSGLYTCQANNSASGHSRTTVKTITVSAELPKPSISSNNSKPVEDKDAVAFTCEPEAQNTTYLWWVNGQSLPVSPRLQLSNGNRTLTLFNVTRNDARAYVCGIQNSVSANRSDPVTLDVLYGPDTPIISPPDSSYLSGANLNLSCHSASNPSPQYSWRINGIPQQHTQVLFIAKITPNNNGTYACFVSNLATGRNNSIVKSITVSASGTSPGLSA


Key:
[1] = molecular target: murine 4-1BB on the cell surface (mouse) (UniProt P20334); assay: cell-based or functional assay
[2] = molecular target: T1, recombinant mouse TNFSF9 (4-1BBL); assay: competition ELISA on immobilized m4-1BB
Procedure: Both m4-1BB (3 μg/ml) or hEGFR (5 μg/ml) were immobilized on Maxisorp ELISA plates (NUNC Brand Products, Roskilde, Denmark) overnight at 4° C. After washing and blocking with 200 μl PBS-5% BSA, 100 μl of conditioned media or purified protein solution at 1 μg/ml were added and incubated for 1 hour at room temperature. The wells were washed for three times with PBS0.05% Tween-20, and 100 μl of anti-c-myc mAh or anti-FLAG mAh were added for 1 hour incubation at room temperature. The plate was washed as above described and 100 μl of HRP-conjugated goat anti-mouse IgG were added to each well. Afterwards, the plate was washed and developed using OPD (Sigma-Aldrich). For competition ELISA, m4-1BB (3 μg/ml) was immobilized overnight at 4° C. After washing and blocking, recombinant m4-1BBL was added at desired concentration to the wells for 1 hour. Afterwards, purified antibody solution was serially diluted in blocking buffer, added to the wells and incubated for 1 hour at room temperature. Following standard washing steps, anti-FLAG mAh solution was added for 1 hour. After washing HRP-conjugated goat anti-mouse IgG was added and developed using OPD.

human CEA (hCEA) = molecular target: T2, human CEA (hCEA); assay: BLI, m4-1BB-coated biosensors, hCEA in solution
Procedure: FIG. 26. Functional characterization of purified 1D8^{N/C}CEA.1 trimerbody. Biolayer interferometry (BLI)-derived sensorgrams from the interactions between immobilized m4-1BB and 1D8^{N/C}CEA. 1 at 4 or 2 nM. Experimental responses are traced in black, and fitting curves are in gray (A). […] 1 bispecificity towards biosensors coated with m4-1BB and hCEA in solution (B and C). Following association with either 1D8^{N/C}CEA.1 or 1D8^N18 (sample indicated with arrows) or kinetics buffer only (sample indicated with arrows), biosensors were transferred into 50 nM of hCEA (black and red) or kinetics buffer only (blue and green).
The ability of 1D8^{N/C}CEA.1 to bind biosensor-immobilized m4-1BB and hCEA in solution at the same time was investigated using biolayer interferometry (BLI) on an Octet RED96 system (Fortebio, Menlo Park, Calif., USA). AR2G biosensors (Fortebio) were activated using s-NHS and EDC, and then coated with 10 μg/mL m4-1BB in 10 mM sodium acetate at pH 6 for 20 minutes, followed by quenching with ethanolamine. After 10 minutes of equilibration in kinetics buffer (PBS with 0.1% BSA and 0.05% Tween20), the coated biosensors were incubated in kinetics buffer containing 4 nM of 1D8^N18, 1D8^{N/C}CEA. 1, or only kinetics buffer for one hour. […]

lateral mobility at the plasma membrane (diffusion coefficient, RICS), before clustering [1] | lateral mobility at the plasma membrane (diffusion coefficient, RICS), in clusters [1] | binding result [2] | binding result (human CEA (hCEA)) | Molecule
1.5 µm^2/sec | 0.35 µm^2/sec | – | – | rat IgG2a anti-mouse 4-1BB (clone 1D8) (antibody)
– | – | binds | no binding (tested: 50 nM of hCEA) | mouse 4-1BB:hFc chimera (m4-1BB) (Fc fusion, UniProt P20334 24-187, looked up, Bought from R&D Systems; also called murine 4-1BB in fusion with human Fc; not shown: human Fc) VQNSCDNCQPGTFCRKYNPVCKSCPPSTFSSIGGQPNCNICRVCAGYFRFKKFCSSTHNAECECIEGFHCLGPQCTRCEKDCRPGQELTKQGCKTCSLGTFNDQNGTGVCRPWTNCSLDGRSVLKTGTTEKDVVCGPPVVSFSPSTTISVTPEGGPGGHSLQVL
